This note sets out measurements from publication PMC3792905, “HIV-1 Vpr Induces the Degradation of ZIP and sZIP, Adaptors of the NuRD Chromatin Remodeling Complex, by Hijacking DCAF1/VprBP” (PLoS ONE, 2013).

For assay [1], the target named is DCAF1 (UniProt Q9Y4B6).
Assay [2] has as its target DCAF1 (UniProt Q9Y4B6 1-1507). As to the kind of experiment: cell-based or functional assay.

DCAF1 (UniProt Q9Y4B6 1-1507), sequence (Q9Y4B6 whole entry): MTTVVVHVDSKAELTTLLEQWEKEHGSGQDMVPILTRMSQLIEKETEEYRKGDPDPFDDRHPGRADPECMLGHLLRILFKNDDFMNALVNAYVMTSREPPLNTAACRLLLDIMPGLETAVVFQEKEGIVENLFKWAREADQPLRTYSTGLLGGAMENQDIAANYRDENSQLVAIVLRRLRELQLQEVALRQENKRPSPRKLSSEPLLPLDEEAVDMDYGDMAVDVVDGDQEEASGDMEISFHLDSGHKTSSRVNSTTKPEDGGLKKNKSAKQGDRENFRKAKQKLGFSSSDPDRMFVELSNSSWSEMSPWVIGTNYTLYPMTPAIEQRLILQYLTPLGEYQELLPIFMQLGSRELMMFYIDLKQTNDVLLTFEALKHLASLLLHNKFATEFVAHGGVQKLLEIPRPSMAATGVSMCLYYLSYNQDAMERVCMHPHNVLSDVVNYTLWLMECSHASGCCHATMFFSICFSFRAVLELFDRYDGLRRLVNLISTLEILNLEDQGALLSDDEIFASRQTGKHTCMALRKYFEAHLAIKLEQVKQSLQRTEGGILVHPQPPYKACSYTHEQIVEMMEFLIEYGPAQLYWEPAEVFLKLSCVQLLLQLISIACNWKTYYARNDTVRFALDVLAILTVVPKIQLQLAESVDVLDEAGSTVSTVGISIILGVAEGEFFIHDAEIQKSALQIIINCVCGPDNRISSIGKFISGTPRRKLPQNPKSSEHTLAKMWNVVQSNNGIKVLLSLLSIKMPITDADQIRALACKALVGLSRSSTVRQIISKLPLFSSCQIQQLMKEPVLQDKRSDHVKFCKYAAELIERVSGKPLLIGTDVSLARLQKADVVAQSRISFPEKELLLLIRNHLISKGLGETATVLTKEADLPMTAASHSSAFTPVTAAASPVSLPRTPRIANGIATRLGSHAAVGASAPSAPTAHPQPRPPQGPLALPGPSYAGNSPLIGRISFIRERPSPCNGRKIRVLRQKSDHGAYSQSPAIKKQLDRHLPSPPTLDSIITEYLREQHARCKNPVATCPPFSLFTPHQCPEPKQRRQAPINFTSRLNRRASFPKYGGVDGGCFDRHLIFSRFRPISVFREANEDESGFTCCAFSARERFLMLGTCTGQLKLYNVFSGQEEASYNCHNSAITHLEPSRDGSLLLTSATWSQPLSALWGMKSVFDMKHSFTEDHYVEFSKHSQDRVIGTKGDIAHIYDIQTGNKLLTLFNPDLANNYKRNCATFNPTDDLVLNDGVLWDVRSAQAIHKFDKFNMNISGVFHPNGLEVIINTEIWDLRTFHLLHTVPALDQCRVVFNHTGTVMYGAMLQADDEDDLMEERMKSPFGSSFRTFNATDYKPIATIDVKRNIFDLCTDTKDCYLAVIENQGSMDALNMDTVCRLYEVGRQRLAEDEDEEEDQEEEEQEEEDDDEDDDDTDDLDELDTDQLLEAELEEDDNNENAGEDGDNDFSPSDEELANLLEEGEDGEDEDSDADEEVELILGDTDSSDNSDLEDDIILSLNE
DCAF1 (UniProt Q9Y4B6), sequence (Q9Y4B6 whole entry): as above

Turning to “VprQ65R (from UniProt P05928 1-96) (natural protein)”, the sZIP expression (FLAG/GFP signal ratio by Western blot) left in HeLa cells co-expressing FLAG-sZIP and the HA-tagged Vpr protein in assay [1] is 50%.

B1: HA-tagged Vpr from HIV-1 LAI (natural protein)
chain: MEQAPEDQGPQREPHNEWTLELLEELKNEAVRHFPRIWLHGLGQHIYETYGDTWAGVEAIIRILQQLLFIHFRIGCRHSRIGVTQQRRARNGASRS
Turning to B1, the “sZIP expression (FLAG/GFP signal ratio by Western blot) left in HeLa cells co-expressing FLAG-sZIP and the HA-tagged Vpr protein” value in assay [2] is less than 15%.
